According to US20170224620A1 (Pfizer, published 2017):
Bridges are numbered along the chain shown (N, C = ends). Where no end group is shown, it is not given here. [ ]: non-standard residue; d: D form. Phe(F5) = N[C@@H](Cc1c(F)c(F)c(F)c(F)c1F)C(=O)O; Phe(4-NH2) = Nc1ccc(C[C@H](N)C(=O)O)cc1; Bta = N[C@@H](Cc1csc2ccccc12)C(=O)O; 3Pal = N[C@@H](Cc1cccnc1)C(=O)O; 2Thi = N[C@@H](Cc1cccs1)C(=O)O; hCys = N[C@@H](CCS)C(=O)O; F(pg) = not defined here; Pra = C#CC[C@H](N)C(=O)O

biological target: T1, Fc tagged recombinant human EGFR (rhEGFR-Fc, R&D systems, Cat#344-ER-050) (human, UniProt P00533 25-645); test: SPR
T1 construct: Bought protein; also called apo-EGFR; not shown: Fc tag
Description: Surface plasmon resonance (SPR) binding studies were carried out on a Biacore T200 instrument (GE Healthcare). […] The contact time and resulting amount of rhEGFR-Fc capture was varied based on the nature of the analyte, namely whether it was a peptide or nanoparticle.
Peptide binding assays were carried out in 10 mM PBS buffer supplemented with 0.05% surfactant P20 and 5% DMSO by volume, at 25° C. Peptides were injected over the rhEGFR-Fc surface for 60 s, followed by dissociation (buffer injection) for 60 s and regeneration with a 10 s pulse of 3M MgCl₂. A fresh rhEGFR-Fc surface was generated for each concentration of each peptide tested. Peptide binding data was analyzed by fitting to a 1:1 Langmuir kinetic model to obtain the on-rate (kₐ), off-rate (kd) and/or equilibrium binding constant (KD) of the interaction.

Binder	Result (affinity relative to KD of P2) [ratio]	binding result	KD Relative to P2 [ratio]	KD/P2 KD [ratio]
DPCTWEVWGREXLQGGGG (free N-terminus; penicillamine (Pen) at 12, disulfide with Cys3; Par at 17; C-terminal amide) [P2-53]	2.64			
H-GGDPETWEVWGREKLQGG[Pra]G-NH2 (lactam 5-14) [P2-67]		binds		
DPCT[Phe(F5)]EVWGRECLQ (disulfide 3-12; not fully specified (N-terminus), P2 backbone; also called P2 with Pentafluoro Phenylalanine at W5) [P2-88]			8.5	
DPATWEVWGRECLQ-{propargyl glycine moiety (p-0168)} (not fully specified (N-terminus), also called P2 Ala scan, AA position 3) [P2-3]		no binding		
DPCTWEVAGRECLQ (disulfide 3-12; not fully specified (N-terminus, C-terminus); also: C-terminal propargylglycine moiety, also called P2 Ala scan, AA position 8) [P2-8]		no binding		
H-DPCTW[Pra]VWGRECLQ-NH2 (disulfide 3-12; SMILES C#CC[C@@H]1NC(=O)[C@H](Cc2c[nH]c3ccccc23)NC(=O)[C@H]([C@@H](C)O)NC(=O)[C@@H](NC(=O)[C@@H]2CCCN2C(=O)[C@@H](N)CC(=O)O)CSSC[C@@H](C(=O)N[C@@H](CC(C)C)C(=O)N[C@@H](CCC(N)=O)C(N)=O)NC(=O)[C@H](CCC(=O)O)NC(=O)[C@H](CCCNC(=N)N)NC(=O)CNC(=O)[C@H](Cc2c[nH]c3ccccc23)NC(=O)[C@H](C(C)C)NC1=O) [P2-31]				0.86
Ac-DPCTWEVWGREALQ (also: C-terminal propargylglycine moiety, not placed, also called P2 Ala scan, AA position 12) [P2-12]		no binding		
DPCTFEVWGRECLQ (disulfide 3-12; not fully specified (N-terminus, C-terminus), P2 backbone; also called P2 with Phenylalanine at W5) [P2-70]			9.24	
H-DPC[Pra]WEVWGRECLQ-NH2 (disulfide 3-12; SMILES C#CC[C@@H]1NC(=O)[C@@H](NC(=O)[C@@H]2CCCN2C(=O)[C@@H](N)CC(=O)O)CSSC[C@@H](C(=O)N[C@@H](CC(C)C)C(=O)N[C@@H](CCC(N)=O)C(N)=O)NC(=O)[C@H](CCC(=O)O)NC(=O)[C@H](CCCNC(=N)N)NC(=O)CNC(=O)[C@H](Cc2c[nH]c3ccccc23)NC(=O)[C@H](C(C)C)NC(=O)[C@H](CCC(=O)O)NC(=O)[C@H](Cc2c[nH]c3ccccc23)NC1=O) [P2-27]				5.4
H-DPCTWE[Pra]WGRECLQ-NH2 (disulfide 3-12; SMILES C#CC[C@@H]1NC(=O)[C@H](CCC(=O)O)NC(=O)[C@H](Cc2c[nH]c3ccccc23)NC(=O)[C@H]([C@@H](C)O)NC(=O)[C@@H](NC(=O)[C@@H]2CCCN2C(=O)[C@@H](N)CC(=O)O)CSSC[C@@H](C(=O)N[C@@H](CC(C)C)C(=O)N[C@@H](CCC(N)=O)C(N)=O)NC(=O)[C@H](CCC(=O)O)NC(=O)[C@H](CCCNC(=N)N)NC(=O)CNC(=O)[C@H](Cc2c[nH]c3ccccc23)NC1=O) [P2-35]				5.69
DPCT[2Thi]EVWGRECLQ (disulfide 3-12; not fully specified (N-terminus), P2 backbone; also called P2 with 2-Thienyl Alanine at W5) [P2-92]			15.9	
H-DP[hCys]TWEVWGRE[hCys]LQGG[Pra]G-NH2 (disulfide 3-12; SMILES C#CC[C@H](NC(=O)CNC(=O)CNC(=O)[C@H](CCC(N)=O)NC(=O)[C@H](CC(C)C)NC(=O)[C@@H]1CCSSCC[C@H](NC(=O)[C@@H]2CCCN2C(=O)[C@@H](N)CC(=O)O)C(=O)N[C@@H]([C@@H](C)O)C(=O)N[C@@H](Cc2c[nH]c3ccccc23)C(=O)N[C@@H](CCC(=O)O)C(=O)N[C@@H](C(C)C)C(=O)N[C@@H](Cc2c[nH]c3ccccc23)C(=O)NCC(=O)N[C@@H](CCCNC(=N)N)C(=O)N[C@@H](CCC(=O)O)C(=O)N1)C(=O)NCC(N)=O) [P2-52]	14			
DPCTXEVWGRECLQ (not fully specified; 3-Benzothienyl Alanine at 5; Cys3-Cys12 disulfide, P2 backbone; also called P2 with 3-Benzothienyl Alanine at W5) [P2-90]			1.6	
DPXTWEVWGRECLQGGGG (free N-terminus; Pen at 3, disulfide with Cys12; Par at 17; C-terminal amide) [P2-54]	4.78			
DPCT[3Pal]EVWGRECLQ (disulfide 3-12; not fully specified (N-terminus), P2 backbone; also called P2 with 3-Pyridyl Alanine at W5) [P2-74]			11.8	
H-DPCTWETWGRECLQGG[Pra]G-NH2 (disulfide 3-12; SMILES C#CC[C@H](NC(=O)CNC(=O)CNC(=O)[C@H](CCC(N)=O)NC(=O)[C@H](CC(C)C)NC(=O)[C@@H]1CSSC[C@H](NC(=O)[C@@H]2CCCN2C(=O)[C@@H](N)CC(=O)O)C(=O)N[C@@H]([C@@H](C)O)C(=O)N[C@@H](Cc2c[nH]c3ccccc23)C(=O)N[C@@H](CCC(=O)O)C(=O)N[C@@H]([C@@H](C)O)C(=O)N[C@@H](Cc2c[nH]c3ccccc23)C(=O)NCC(=O)N[C@@H](CCCNC(=N)N)C(=O)N[C@@H](CCC(=O)O)C(=O)N1)C(=O)NCC(N)=O) [P2-38]				12.3
H-DPCTWEVWGAECLQGG[Pra]G-NH2 (disulfide 3-12) [P2-45]		binds		
H-DPCTWEVWGRDCLQGG[Pra]G-NH2 (disulfide 3-12; SMILES C#CC[C@H](NC(=O)CNC(=O)CNC(=O)[C@H](CCC(N)=O)NC(=O)[C@H](CC(C)C)NC(=O)[C@@H]1CSSC[C@H](NC(=O)[C@@H]2CCCN2C(=O)[C@@H](N)CC(=O)O)C(=O)N[C@@H]([C@@H](C)O)C(=O)N[C@@H](Cc2c[nH]c3ccccc23)C(=O)N[C@@H](CCC(=O)O)C(=O)N[C@@H](C(C)C)C(=O)N[C@@H](Cc2c[nH]c3ccccc23)C(=O)NCC(=O)N[C@@H](CCCNC(=N)N)C(=O)N[C@@H](CC(=O)O)C(=O)N1)C(=O)NCC(N)=O) [P2-49]				3.39
H-DPCTWEVAGRECLQGG[Pra]G-NH2 (disulfide 3-12; SMILES C#CC[C@H](NC(=O)CNC(=O)CNC(=O)[C@H](CCC(N)=O)NC(=O)[C@H](CC(C)C)NC(=O)[C@@H]1CSSC[C@H](NC(=O)[C@@H]2CCCN2C(=O)[C@@H](N)CC(=O)O)C(=O)N[C@@H]([C@@H](C)O)C(=O)N[C@@H](Cc2c[nH]c3ccccc23)C(=O)N[C@@H](CCC(=O)O)C(=O)N[C@@H](C(C)C)C(=O)N[C@@H](C)C(=O)NCC(=O)N[C@@H](CCCNC(=N)N)C(=O)N[C@@H](CCC(=O)O)C(=O)N1)C(=O)NCC(N)=O) [P2-39]		no binding		
H-DPCTWEVWGKECLQGG[Pra]G-NH2 (disulfide 3-12) [P2-46]				13.9
H-DPCTWEVFGRECLQGG[Pra]G-NH2 (disulfide 3-12; SMILES C#CC[C@H](NC(=O)CNC(=O)CNC(=O)[C@H](CCC(N)=O)NC(=O)[C@H](CC(C)C)NC(=O)[C@@H]1CSSC[C@H](NC(=O)[C@@H]2CCCN2C(=O)[C@@H](N)CC(=O)O)C(=O)N[C@@H]([C@@H](C)O)C(=O)N[C@@H](Cc2c[nH]c3ccccc23)C(=O)N[C@@H](CCC(=O)O)C(=O)N[C@@H](C(C)C)C(=O)N[C@@H](Cc2ccccc2)C(=O)NCC(=O)N[C@@H](CCCNC(=N)N)C(=O)N[C@@H](CCC(=O)O)C(=O)N1)C(=O)NCC(N)=O) [P2-40]		binds		
H-DPCTWEVWG[F(pg)]ECLQGG[Pra]G-NH2 (disulfide 3-12; reading uncertain) [P2-47]				37.1
DPCTWEV[Bta]GRECLQ (disulfide 3-12; not fully specified (N-terminus), P2 backbone; also called P2 with 3-Benzothienyl Alanine at W8) [P2-91]			124	
H-DP[hCys]TWEVWGRECLQGG[Pra]G-NH2 (disulfide 3-12; SMILES C#CC[C@H](NC(=O)CNC(=O)CNC(=O)[C@H](CCC(N)=O)NC(=O)[C@H](CC(C)C)NC(=O)[C@@H]1CSSCC[C@H](NC(=O)[C@@H]2CCCN2C(=O)[C@@H](N)CC(=O)O)C(=O)N[C@@H]([C@@H](C)O)C(=O)N[C@@H](Cc2c[nH]c3ccccc23)C(=O)N[C@@H](CCC(=O)O)C(=O)N[C@@H](C(C)C)C(=O)N[C@@H](Cc2c[nH]c3ccccc23)C(=O)NCC(=O)N[C@@H](CCCNC(=N)N)C(=O)N[C@@H](CCC(=O)O)C(=O)N1)C(=O)NCC(N)=O) [P2-51]	8.88			
DPCT[Phe(4-NH2)]EVWGRECLQ (disulfide 3-12; not fully specified (N-terminus), P2 backbone; also called P2 with 4-Amino Phenylalanine at W5) [P2-86]			9	
DPXTWEVWGREXLQGGGG (free N-terminus; Pen at 3 and 12, disulfide; Par at 17; C-terminal amide, also called PenPen analog) [P2-55 (free-ligand series, GG-Par-G tail)]	1.18			
